According to the Human Domainome abundance scans (Beltran et al. 2025):
± gives the uncertainty stated by the source.

B1: Max-interacting protein 1, residues 70 to 120; numbered along this chain, P50539 (parent)
chain: STHNELEKNRRAHLRLCLERLKVLIPLGPDCTRHTTLGLLNKAKAHIKKLE

Variants of: B1
Test: abundance fitness (aPCA) (normalised: wild type 0, dead -1); higher = more abundant; growth selection in yeast, the domain comes from the species named
Conditions: Homo sapiens

**Q.** Which abundance fitness does the source give for STHNELEKNRRAHLRLCLERLKVLIPLGPDCTRHTTLLLLNKAKAHIKKLE [G38L] here?
**A.** -0.326 ± 0.1

**Q.** Which abundance fitness does the source give for STHNELEKNRRAHLRLCLERLKVLIPLGPDCTRHTTLVLLNKAKAHIKKLE [G38V] here?
**A.** -0.242 ± 0.083

**Q.** For STHNELEKNRRAHLRLCLERLKVLTPLGPDCTRHTTLGLLNKAKAHIKKLE [I25T], which abundance fitness is on record?
**A.** -0.562 ± 0.13

**Q.** For STHNELEKNRRAHLRLCLERLKVLKPLGPDCTRHTTLGLLNKAKAHIKKLE [I25K], which abundance fitness is on record?
**A.** -0.995 ± 0.26

**Q.** For STHNELEKNRRAHLRLCLERLKVLGPLGPDCTRHTTLGLLNKAKAHIKKLE [I25G], which abundance fitness is on record?
**A.** -0.26 ± 0.11

**Q.** Which abundance fitness does the source give for STHNELEKNRRAHLRLCLERLKVLVPLGPDCTRHTTLGLLNKAKAHIKKLE [I25V] here?
**A.** -0.062 ± 0.088

**Q.** With STHNELEKNRRAHLRLCLERLKVLQPLGPDCTRHTTLGLLNKAKAHIKKLE [I25Q] as the variant, how does the abundance fitness read?
**A.** -0.561 ± 0.17

**Q.** With STHNELEKNRRAHLRLCLERLKVLIPLCPDCTRHTTLGLLNKAKAHIKKLE [G28C] as the variant, how does the abundance fitness read?
**A.** -0.155 ± 0.12

**Q.** With STHNELEKNRRAHLRLCLERLKVLIPLSPDCTRHTTLGLLNKAKAHIKKLE [G28S] as the variant, how does the abundance fitness read?
**A.** 0.003 ± 0.085

**Q.** With STHNELEKNRRAHLRLCLERLKVLIPLMPDCTRHTTLGLLNKAKAHIKKLE [G28M] as the variant, how does the abundance fitness read?
**A.** 0.074 ± 0.11

**Q.** With STHNELEENRRAHLRLCLERLKVLIPLGPDCTRHTTLGLLNKAKAHIKKLE [K8E] as the variant, how does the abundance fitness read?
**A.** -0.291 ± 0.11

**Q.** With STHNELEKNRRAHLRLCLERLKVLILLGPDCTRHTTLGLLNKAKAHIKKLE [P26L] as the variant, how does the abundance fitness read?
**A.** -0.326 ± 0.095

**Q.** For STHNELEKNRRAHLRLCLERLKVLIMLGPDCTRHTTLGLLNKAKAHIKKLE [P26M], which abundance fitness is on record?
**A.** 0.074 ± 0.11

**Q.** For STHNELEKNRRAHLRLCLERLKVLIVLGPDCTRHTTLGLLNKAKAHIKKLE [P26V], which abundance fitness is on record?
**A.** -0.628 ± 0.098

**Q.** For STHNELEKNRRAHLSLCLERLKVLIPLGPDCTRHTTLGLLNKAKAHIKKLE [R15S], which abundance fitness is on record?
**A.** -0.231 ± 0.11

**Q.** For STHNELEKNRRAHLRLCLERLKVLIPLGPDCTRHTTLGNLNKAKAHIKKLE [L39N], which abundance fitness is on record?
**A.** -1 ± 0.17

**Q.** With STHNELEKNRRAHLRLCLERLKVLIPLGPDCTRHTTLGYLNKAKAHIKKLE [L39Y] as the variant, how does the abundance fitness read?
**A.** -0.555 ± 0.16

**Q.** Which abundance fitness does the source give for STHNELEKNRRAHLRLCLERLKVLIPLGPDCNRHTTLGLLNKAKAHIKKLE [T32N] here?
**A.** -0.389 ± 0.17

**Q.** With STHNELEKNRRAHLRLCLERLKVLIPLGPDCHRHTTLGLLNKAKAHIKKLE [T32H] as the variant, how does the abundance fitness read?
**A.** -0.168 ± 0.12

**Q.** Which abundance fitness does the source give for STHNELEKNRRAHLRLCLERLKVLIPLGPDCQRHTTLGLLNKAKAHIKKLE [T32Q] here?
**A.** -0.112 ± 0.16

**Q.** For STHNELEKNRRAHLRLCLERLKRLIPLGPDCTRHTTLGLLNKAKAHIKKLE [V23R], which abundance fitness is on record?
**A.** 0.316 ± 0.095

**Q.** Which abundance fitness does the source give for STSNELEKNRRAHLRLCLERLKVLIPLGPDCTRHTTLGLLNKAKAHIKKLE [H3S] here?
**A.** 0.065 ± 0.1

**Q.** For STMNELEKNRRAHLRLCLERLKVLIPLGPDCTRHTTLGLLNKAKAHIKKLE [H3M], which abundance fitness is on record?
**A.** 0.152 ± 0.12

**Q.** For STHNELEKNRRAHLRLCLERLKVLIPLGPDCTRHTTLGLLNKAKAIIKKLE [H46I], which abundance fitness is on record?
**A.** -0.26 ± 0.24

**Q.** Which abundance fitness does the source give for STHNELEKNRRAHLRLCLERLKVLIPLGPDCTRHTTLGLMNKAKAHIKKLE [L40M] here?
**A.** -0.098 ± 0.13

**Q.** For STHNELEKNRRAHLRLCLERLKVLIPLGPDCTRHTTLGLVNKAKAHIKKLE [L40V], which abundance fitness is on record?
**A.** -0.099 ± 0.085

**Q.** Which abundance fitness does the source give for STHNELEKNRRAHLRLCLERLKVLIPLGPDCTRHTTLGLYNKAKAHIKKLE [L40Y] here?
**A.** -0.617 ± 0.33

**Q.** Which abundance fitness does the source give for STHNELEKNRRAHLRLCLERLKVLIPLGPDCTRHTTLGLTNKAKAHIKKLE [L40T] here?
**A.** -0.68 ± 0.15

**Q.** For STHNELEKNRRAHLRLCLERLKVLIPLGPDCTRHTTQGLLNKAKAHIKKLE [L37Q], which abundance fitness is on record?
**A.** -0.154 ± 0.12

**Q.** With STHNELEKNRRAHLRLCLERLKVLIPLGPDKTRHTTLGLLNKAKAHIKKLE [C31K] as the variant, how does the abundance fitness read?
**A.** 0.334 ± 0.12

**Q.** Which abundance fitness does the source give for STHNELEKNRRAHLRLCLERLKVLIPLGPDRTRHTTLGLLNKAKAHIKKLE [C31R] here?
**A.** 0.203 ± 0.08

**Q.** For STHNELEKNRRAHLRLCLERLKVLIPLGPDTTRHTTLGLLNKAKAHIKKLE [C31T], which abundance fitness is on record?
**A.** -0.034 ± 0.12

**Q.** For STHNELEKNRRAHLRLCLERLKVLIPLGPDVTRHTTLGLLNKAKAHIKKLE [C31V], which abundance fitness is on record?
**A.** 0.145 ± 0.079

**Q.** With STHNELEKNRRAHLRLCLERLKVLIPLGPDETRHTTLGLLNKAKAHIKKLE [C31E] as the variant, how does the abundance fitness read?
**A.** -0.206 ± 0.1

**Q.** Which abundance fitness does the source give for STHNELEKNRRAHLRLCLERLYVLIPLGPDCTRHTTLGLLNKAKAHIKKLE [K22Y] here?
**A.** -0.884 ± 0.36

**Q.** For STHNELEKNQRAHLRLCLERLKVLIPLGPDCTRHTTLGLLNKAKAHIKKLE [R10Q], which abundance fitness is on record?
**A.** -0.219 ± 0.15

**Q.** Which abundance fitness does the source give for STHNELEKNRRAHLRLMLERLKVLIPLGPDCTRHTTLGLLNKAKAHIKKLE [C17M] here?
**A.** 0.123 ± 0.11

**Q.** With STHNELEKNRRAHLRLLLERLKVLIPLGPDCTRHTTLGLLNKAKAHIKKLE [C17L] as the variant, how does the abundance fitness read?
**A.** 0.101 ± 0.083

**Q.** With STHNELEKNRRASLRLCLERLKVLIPLGPDCTRHTTLGLLNKAKAHIKKLE [H13S] as the variant, how does the abundance fitness read?
**A.** -0.085 ± 0.094

**Q.** For STHNELEKNRRAHLRLCLERLKVLIPLGPDCTRHTTLGLLNKDKAHIKKLE [A43D], which abundance fitness is on record?
**A.** -0.634 ± 0.17

**Q.** With STHNELEKNRRAHLRLCLERLKVLIPLGPDCTRHTTLGLLNKAKAHAKKLE [I47A] as the variant, how does the abundance fitness read?
**A.** -0.582 ± 0.1

**Q.** With STHNELEKNRRAHLRLCLERLKVLIPLGPDCTRHTTLGLLNKAKAHKKKLE [I47K] as the variant, how does the abundance fitness read?
**A.** -0.858 ± 0.14

**Q.** Which abundance fitness does the source give for STHNELEKNRRAHLRLCLERLKVLIPLGPDCTRHTTLGLLNKAKAHMKKLE [I47M] here?
**A.** -0.25 ± 0.1

**Q.** With STHNELEKNRRAHLRLCLERLKVLIPLGPDCTRHTTLGLLNKAKAHQKKLE [I47Q] as the variant, how does the abundance fitness read?
**A.** -0.931 ± 0.14

**Q.** With STHNELEKNRRAHLRLCLERNKVLIPLGPDCTRHTTLGLLNKAKAHIKKLE [L21N] as the variant, how does the abundance fitness read?
**A.** -1.17 ± 0.3

**Q.** With STHNELEKNRRAHLRLCLERWKVLIPLGPDCTRHTTLGLLNKAKAHIKKLE [L21W] as the variant, how does the abundance fitness read?
**A.** -0.594 ± 0.12

**Q.** For STHNELEKNRRAHLRLCLSRLKVLIPLGPDCTRHTTLGLLNKAKAHIKKLE [E19S], which abundance fitness is on record?
**A.** -0.083 ± 0.11

**Q.** With STHNELEKNRRAHLRLCLIRLKVLIPLGPDCTRHTTLGLLNKAKAHIKKLE [E19I] as the variant, how does the abundance fitness read?
**A.** -0.43 ± 0.24

**Q.** With STHNELEKNRRAHLRLCLQRLKVLIPLGPDCTRHTTLGLLNKAKAHIKKLE [E19Q] as the variant, how does the abundance fitness read?
**A.** -0.185 ± 0.14

**Q.** For STHNELEKNRRAHLRLCLMRLKVLIPLGPDCTRHTTLGLLNKAKAHIKKLE [E19M], which abundance fitness is on record?
**A.** -0.678 ± 0.14

**Q.** Which abundance fitness does the source give for STHNELEKNRRAHLRLCLVRLKVLIPLGPDCTRHTTLGLLNKAKAHIKKLE [E19V] here?
**A.** -0.999 ± 0.11
